As a reminder, the EC50 is the concentration at which the effect is half-maximal.

Substitutions are numbered along the chain they refer to.

Eleven molecules from patent US20160168247A1 (published 2016) can be followed below.

Experiment [1] addresses T1, HSC-F (cynomolgus monkey, UniProt Q95LI8 22-171; Q95LI7 23-181).
T1 chain: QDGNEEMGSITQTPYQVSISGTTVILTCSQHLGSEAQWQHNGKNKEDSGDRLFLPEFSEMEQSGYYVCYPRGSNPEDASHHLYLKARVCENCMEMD
As to the kind of experiment: FACS binding; Fig 2A. On the technique in general: A flow cytometer gives signals particle by particle.

Experiment [2] addresses T1, HSC-F. In words: FACS binding.
Experiment [3] addresses human CD3 (on the human T-cell line Jurkat or on human T-cells) (human, UniProt P09693 23-182; P20963 22-164). In words: FACS binding.
The target of experiment [4] is T1, HSC-F. As to the kind of experiment: FACS binding.

human CD3 (on the human T-cell line Jurkat or on human T-cells), sequence (chain, as listed by the source, chain 1 of 4): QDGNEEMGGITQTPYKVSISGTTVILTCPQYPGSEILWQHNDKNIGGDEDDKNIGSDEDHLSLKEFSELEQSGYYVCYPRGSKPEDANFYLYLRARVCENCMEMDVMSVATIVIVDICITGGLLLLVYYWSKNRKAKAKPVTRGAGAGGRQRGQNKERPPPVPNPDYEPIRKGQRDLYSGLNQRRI
human CD3 (on the human T-cell line Jurkat or on human T-cells), sequence (chain, as listed by the source, chain 2 of 4): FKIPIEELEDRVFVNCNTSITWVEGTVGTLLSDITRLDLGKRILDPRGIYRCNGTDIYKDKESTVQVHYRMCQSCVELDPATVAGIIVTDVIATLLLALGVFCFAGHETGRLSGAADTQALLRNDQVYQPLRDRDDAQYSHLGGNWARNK
human CD3 (on the human T-cell line Jurkat or on human T-cells), sequence (P09693 23-182, chain 3 of 4): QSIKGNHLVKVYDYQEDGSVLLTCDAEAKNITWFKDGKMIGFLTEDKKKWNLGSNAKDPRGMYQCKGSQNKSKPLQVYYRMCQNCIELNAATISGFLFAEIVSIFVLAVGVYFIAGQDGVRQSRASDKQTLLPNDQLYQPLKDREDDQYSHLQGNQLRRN
human CD3 (on the human T-cell line Jurkat or on human T-cells), sequence (P20963 22-164, chain 4 of 4): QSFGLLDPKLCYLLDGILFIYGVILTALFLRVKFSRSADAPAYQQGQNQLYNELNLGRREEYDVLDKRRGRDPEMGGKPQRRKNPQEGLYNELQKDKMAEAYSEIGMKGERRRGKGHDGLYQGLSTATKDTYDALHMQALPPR

B1: IgG1-huCD3-H1L1 (antibody, V domains shown)
VH: EVKLVESGGGLVQPGGSLRLSCAASGFTFNTYAMNWVRQAPGKGLEWVARIRSKYNNYATYYADSVKDRFTISRDDSKSSLYLQMNNLKTEDTAMYYCVRHGNFGNSYVSWFAYWGQGTLVTVSS
VL: not shown
Regarding B1, in the experiment with HSC-F [1], the EC50 came to 0.37 µg/mL.

B2: bsIgG1-huCD3-H1L3xHER2-LFLEDA (bispecific antibody, V domains shown)
VH 1: B1 VH
VL 1: QAVVTQEPSFSVSPGGTVTLTCRSSTGAVTTSNYANWVQQTPGQAFRGLIGGTNKRAPGVPARFSGSILGNKAALTITGAQADDESDYYCALWYSNLWVFGGGTKLTVL
VH 2: QVQLVQSGAEVKKPGASVKVSCKASGYTFTNYGISWVRQAPGQGLEWMGWLSAYSGNTIYAQKLQGRVTMTTDTSTTTAYMELRSLRSDDTAVYYCARDRIVVRPDYFDYWGQGTLVTVSS
VL 2: EIVLTQSPATLSLSPGERATLSCRASQSVSSYLAWYQQKPGQAPRLLIYDASNRATGIPARFSGSGSGTDFTLTISSLEPEDFAVYYCQQRSNWPRTFGQGTKVEIK
With B2, in the experiment with HSC-F [2], the EC50 worked out at 0.25 µg/mL.

B3: bsIgG1-huCD3-H4L3×HER2-LFLEDA (bispecific antibody, V domains shown)
VH 1: B1 VH with Q13K, G16R, S80I, N87S, L120M
VL 1: B2 VL 1
VH 2: B2 VH 2
VL 2: B2 VL 2
In experiment [3], B3 showed an EC50 of 0.59 µg/mL.

B4: bsIgG1-huCD3-H3L3×HER2-LFLEDA (bispecific antibody, V domains shown)
VH 1: B1 VH with Q13K, G16R, S80I, N87S
VL 1: B2 VL 1
VH 2: B2 VH 2
VL 2: B2 VL 2
For the molecule B4, the response in experiment [3] was half-maximal at 0.74 µg/mL (EC50).

B5: bsIgG1-huCD3-H1L1xHER2-LFLEDA (bispecific antibody, V domains shown)
VH 1: B1 VH
VL 1: not shown
VH 2: B2 VH 2
VL 2: B2 VL 2
In the experiment with HSC-F [2], B5 returned an EC50 of 0.32 µg/mL.

B6: bsIgG1-huCD3-H4L1×HER2-LFLEDA (bispecific antibody, V domains shown)
VH 1: B1 VH with Q13K, G16R, S80I, N87S, L120M
VL 1: not shown
VH 2: B2 VH 2
VL 2: B2 VL 2
On to B6, for which the response in experiment [3] was half-maximal at 0.62 µg/mL (EC50).

B7: bsIgG1-huCD3-H3L1xHER2-LFLEDA (bispecific antibody, V domains shown)
VH 1: B1 VH with Q13K, G16R, S80I, N87S
VL 1: not shown
VH 2: B2 VH 2
VL 2: B2 VL 2
Turning to B7, the 50% effective concentration (EC50) with HSC-F [2] stood at 0.28 µg/mL.

B8: bsIgG1-huCD3-H4L1xHER2-LFLEDA (bispecific antibody, V domains shown)
VH 1: B1 VH with Q13K, G16R, S80I, N87S, L120M
VL 1: not shown
VH 2: B2 VH 2
VL 2: B2 VL 2
Regarding B8, the EC50 with HSC-F [2] stood at 0.36 µg/mL.

B9: IgG1-huCD3-H1L1-LFLEDA (antibody, V domains shown)
VH: B1 VH
VL: not shown
On to B9, for which the EC50 in the experiment with HSC-F [4] was found to be 0.03 µg/mL.

B10: bsIgG1-huCD3-H1L3×HER2-LFLEDA (bispecific antibody, V domains shown)
VH 1: B1 VH
VL 1: B2 VL 1
VH 2: B2 VH 2
VL 2: B2 VL 2
With B10, the EC50 in experiment [3] is 0.58 µg/mL.

B11: bsIgG1-huCD3-H3L3xHER2-LFLEDA (bispecific antibody, V domains shown)
VH 1: B1 VH with Q13K, G16R, S80I, N87S
VL 1: B2 VL 1
VH 2: B2 VH 2
VL 2: B2 VL 2
In the experiment with HSC-F [2], B11 returned a concentration for a half-maximal effect (EC50) of 0.26 µg/mL.
